How the values were obtained:
[1] = target: T1, GST-My16Ank (uncleaved glutathione S-transferase fusion of the myosin 16 ankyrin domain) (Rattus norvegicus, UniProt Q9ERC1-1 1-402); assay: SPR
T1 sequence (looked up): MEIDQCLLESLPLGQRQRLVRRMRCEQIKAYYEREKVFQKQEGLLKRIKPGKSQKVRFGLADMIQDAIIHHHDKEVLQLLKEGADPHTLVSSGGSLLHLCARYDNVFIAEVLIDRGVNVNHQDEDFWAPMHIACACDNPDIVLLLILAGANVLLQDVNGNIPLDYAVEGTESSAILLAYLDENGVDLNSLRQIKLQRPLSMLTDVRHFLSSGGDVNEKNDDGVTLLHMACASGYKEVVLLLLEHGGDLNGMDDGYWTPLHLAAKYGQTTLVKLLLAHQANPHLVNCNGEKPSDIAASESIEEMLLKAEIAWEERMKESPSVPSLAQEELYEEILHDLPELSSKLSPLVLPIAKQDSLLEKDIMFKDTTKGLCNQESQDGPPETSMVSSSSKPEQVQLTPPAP

[2] = target: T2, Myosin 16 ankyrin domain (My16Ank), GST tag cleaved (Rattus norvegicus, UniProt Q9ERC1-1 1-402); assay: SPR
T2 sequence (looked up): T1 sequence (looked up)

B1: recombinant His-tagged PP1cδ (protein phosphatase-1 catalytic subunit, δ isoform) (enzyme, UniProt P62140 1-327, looked up)
chain: MADGELNVDSLITRLLEVRGCRPGKIVQMTEAEVRGLCIKSREIFLSQPILLELEAPLKICGDIHGQYTDLLRLFEYGGFPPEANYLFLGDYVDRGKQSLETICLLLAYKIKYPENFFLLRGNHECASINRIYGFYDECKRRFNIKLWKTFTDCFNCLPIAAIVDEKIFCCHGGLSPDLQSMEQIRRIMRPTDVPDTGLLCDLLWSDPDKDVQGWGENDRGVSFTFGADVVSKFLNRHDLDLICRAHQVVEDGYEFFAKRQLVTLFSAPNYCGEFDNAGGMMSVDETLMCSFQILKPSEKKAKYQYGGLNSGRPVTPPRTANPPKKR
[1]
  Ka: 3.04e+06 M⁻¹
  Kd: 329 nM
  koff: 0.000473 s⁻¹
  kon: 1440 M⁻¹ s⁻¹
[2]
  Ka: 1.65e+06 M⁻¹

Source: article PMC8603391 (European biophysics journal : EBJ, 2015)
